Test results from patent US20230174652A1 (Regeneron, published 2023).

T1: human CD20 on HEK293/hCD20 cells (human, UniProt P11836 1-297)
T1 construct: whole, on cells; Used as a cell line negative for CD28 and CD22; also called negative cell line for CD28 and CD22
T1 sequence (looked up): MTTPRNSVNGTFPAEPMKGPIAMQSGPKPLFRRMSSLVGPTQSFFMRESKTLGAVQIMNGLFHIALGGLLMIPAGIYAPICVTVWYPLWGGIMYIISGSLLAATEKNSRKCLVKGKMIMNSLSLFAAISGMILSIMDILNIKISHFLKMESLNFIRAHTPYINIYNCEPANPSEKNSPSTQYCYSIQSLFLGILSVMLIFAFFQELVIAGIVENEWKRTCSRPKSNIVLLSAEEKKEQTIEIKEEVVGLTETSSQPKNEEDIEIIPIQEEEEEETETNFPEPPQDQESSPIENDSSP

T2: Monkey CD22.mmH (XP_005588899.1) (monkey (cyno))
T2 construct: also called REGN5280; mfCD22.mmH
T2 chain: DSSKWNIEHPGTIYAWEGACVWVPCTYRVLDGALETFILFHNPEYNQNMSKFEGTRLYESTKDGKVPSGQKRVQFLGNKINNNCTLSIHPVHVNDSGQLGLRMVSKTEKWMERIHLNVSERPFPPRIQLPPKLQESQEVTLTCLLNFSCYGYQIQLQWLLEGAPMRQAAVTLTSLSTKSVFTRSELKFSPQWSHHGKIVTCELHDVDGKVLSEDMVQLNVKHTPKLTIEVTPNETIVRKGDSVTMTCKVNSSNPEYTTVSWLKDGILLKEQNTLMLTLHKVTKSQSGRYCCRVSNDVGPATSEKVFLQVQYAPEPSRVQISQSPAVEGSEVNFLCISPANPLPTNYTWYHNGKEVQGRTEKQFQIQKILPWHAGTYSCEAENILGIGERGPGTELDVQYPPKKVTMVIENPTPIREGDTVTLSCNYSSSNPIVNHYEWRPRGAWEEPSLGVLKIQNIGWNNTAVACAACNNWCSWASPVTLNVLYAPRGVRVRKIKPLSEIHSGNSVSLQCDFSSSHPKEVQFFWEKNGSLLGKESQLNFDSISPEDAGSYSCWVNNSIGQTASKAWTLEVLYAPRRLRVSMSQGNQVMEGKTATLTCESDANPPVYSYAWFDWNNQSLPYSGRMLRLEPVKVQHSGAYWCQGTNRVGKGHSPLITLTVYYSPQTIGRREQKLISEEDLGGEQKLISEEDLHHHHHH

T3: Monkey CD22.mmH (EHH59463.1) (monkey (cyno))
T3 construct: also called REGN5281; mfCD22.mmH
T3 chain: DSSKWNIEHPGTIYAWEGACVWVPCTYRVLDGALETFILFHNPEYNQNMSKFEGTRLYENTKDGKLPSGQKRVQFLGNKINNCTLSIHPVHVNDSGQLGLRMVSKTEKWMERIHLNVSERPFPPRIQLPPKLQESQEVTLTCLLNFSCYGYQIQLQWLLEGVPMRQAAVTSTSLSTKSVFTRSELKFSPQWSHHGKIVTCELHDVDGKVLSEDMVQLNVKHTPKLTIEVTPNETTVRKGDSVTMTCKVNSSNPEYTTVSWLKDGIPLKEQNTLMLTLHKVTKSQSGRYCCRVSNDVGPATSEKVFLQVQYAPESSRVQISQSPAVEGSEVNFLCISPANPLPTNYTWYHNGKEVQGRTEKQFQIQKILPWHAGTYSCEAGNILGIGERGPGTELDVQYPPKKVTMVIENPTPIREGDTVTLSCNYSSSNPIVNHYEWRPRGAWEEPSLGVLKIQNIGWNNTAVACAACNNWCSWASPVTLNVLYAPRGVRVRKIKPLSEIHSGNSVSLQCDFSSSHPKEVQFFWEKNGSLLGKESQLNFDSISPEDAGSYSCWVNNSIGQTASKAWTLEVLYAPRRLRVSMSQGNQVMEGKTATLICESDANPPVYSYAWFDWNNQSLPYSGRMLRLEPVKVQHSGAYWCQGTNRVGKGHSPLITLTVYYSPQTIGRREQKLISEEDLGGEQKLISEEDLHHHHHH


Columns and labels:
hCD28.mmH = biological target: T4, hCD28.mmH (human); assay: SPR (Biacore T-200), mAb captured by anti-human Fc, hCD28.mmH injected, 25°C
T4 construct: also called human CD28 with a C-terminal myc.myc hexahistidine tag
Description: (§1) All of the binding kinetics experiments were performed at 25° C. Kinetic association (kₐ) and dissociation (kd) rate constants were determined by fitting the real-time sensorgrams to a 1:1 binding model using Scrubber 2.0c curve fitting software.

[1] = biological target: T1, human CD20 on HEK293/hCD20 cells; assay: flow cytometry on HEK293/hCD20 cells (negative for CD22 and CD28), geometric mean MFI of APC
Description: (§2) Briefly, human CD4+ T-cells, HEK293/hCD20, HEK293/hCD20/hCD22 and Raji/CD80 and CD86 negative cells were resuspended in staining buffer containing D-PBS+2% FBS. […] A negative control sample was included containing no antibody. Cells were washed once with cold staining buffer and incubated for 30-45 minutes with Allophycocyanin (APC) labeled anti-human secondary antibody. After incubation, cells were washed once with cold D-PBS buffer without FBS and incubated with LIVE/DEAD Fixable Green Dead Cell Stain (Invitrogen) according to manufacturer's instructions to discriminate between live and dead cells. Cells were then fixed in BD Cytofix Buffer according to manufacturer's instructions, washed, re-suspended in staining buffer, and analyzed by flow cytometry on an iQue Screener flow cytometer. For EC₅₀ determinations, geometric mean fluorescence intensity (MFI) values were analyzed using a four parameter logistic equation over a 9-point response curve using GraphPad Prism. Fold binding was calculated using the following equation:

human CD22 on cells [2] = biological target: T5, human CD22 on cells (human, UniProt P20273 20-847); assay: flow cytometry on Nalm6 cells (human CD22)
T5 construct: whole, on cells; also called hCD22; CD22 on Nalm6 cells
Description: Flow cytometric analysis was utilized to determine binding of CD22×CD28 bispecific antibodies to human CD22 expressing Nalm6 cells and human CD28 expressing Jurkat cells and to cynomolgus monkey T (CD28+) and B (CD22+) cells. […] After incubation, the cells were washed twice with cold PBS containing 1% filtered FBS and a PE-conjugated anti-human secondary antibody was added to the cells and incubated for an additional 30 minutes. An additional phenotyping antibody cocktail (anti-CD2, anti-CD20, anti-CD16, anti-CD14) was added to wells with cynomolgus monkey PBCMs. Wells containing no antibody or secondary only were used as a control.
After incubation with secondary antibody, cells were washed, re-suspended in 200 μL cold PBS containing 1% filtered FBS and analyzed by flow cytometry on a BD LSR_Fortessa. Cynomolgus monkey T cells were identified as CD2+/CD16− and B cells as CD20+. EC₅₀ values for FACS binding were calculated using 4-parameter non-linear regression analysis in Prism software.

hCD22.mmH = biological target: T6, hCD22.mmH (human, UniProt P20273 20-687); assay: SPR (Biacore), mAb captured by anti-human Fc, hCD22.mmH injected, 25°C
T6 construct: also called REGN5140; recombinant human CD22
Description: as §1

human CD22 on cells [3] = biological target: T5, human CD22 on cells; assay: flow cytometry on HEK293/hCD20/hCD22 cells, geometric mean MFI of APC
Description: as §2

[4] = biological target: T2, Monkey CD22.mmH (XP_005588899.1); assay: SPR (Biacore), mAb captured by anti-human Fc, monkey CD22.mmH (XP_005588899.1) injected, 25°C
Description: as §1

[5] = biological target: T3, Monkey CD22.mmH (EHH59463.1); assay: SPR (Biacore), mAb captured by anti-human Fc, monkey CD22.mmH (EHH59463.1) injected, 25°C
Description: as §1

Binder | 600 nM hCD28.mmH Bind (RU) (hCD28.mmH) | Kd (hCD28.mmH) [nM] | binding result [1] | EC50 (human CD22 on cells [2]) [nM] | 90 nM hCD22.mmH Bind (RU) (hCD22.mmH) | Kd (hCD22.mmH) [nM] | t½ (hCD22.mmH) [min] | t1/2 (hCD28.mmH) [min] | binding result (human CD22 on cells [3]) | t1/2 [4] [min] | Kd [5] [nM] | t1/2 [5] [min]
H4sH33041P2 (antibody, V domains shown, Anti-CD22 bivalent parental monoclonal antibody; also called mAb33041P2; CD22 mAb) VH: EVQLVESGGGLVQPGGSLKLSCAASGFTFSGSDMHWVRQASGKGLEWVGRIRNQPNSYATAYAASVKGRFTISRDDSKNTAHLQMNSLKTEDTAVYFCTRQKQVVYNYHHYYGMDVWGQGTTVTVSS VL: not shown | – | – | – | – | 61.5 | – | 59.8 | – | – | 39.8 | 59.2 | 29.6
H4sH33037P2 (antibody, V domains shown, Anti-CD22 bivalent parental monoclonal antibody; also called mAb33037P2; CD22 mAb) VH: EVQLVQSGAEVKKPGESLKISCKGSGYNFATYWIAWVRQMPGKGLELMGIIYPGDSETTYNPSFQGQVTISADKSISNAYLQWSSLKASDTAMYYCARVGGYCSGTSCHNWFDPWGLGTLVTVSS VL: not shown | – | – | – | – | 193 | – | 7.8 | – | – | 4.3 | 35.6 | 4

The next lines start with the values.

600 nM hCD28.mmH Bind (RU) (hCD28.mmH) | Kd (hCD28.mmH) [nM] | binding result [1] | EC50 (human CD22 on cells [2]) [nM] | 90 nM hCD22.mmH Bind (RU) (hCD22.mmH) | Kd (hCD22.mmH) [nM] | t½ (hCD22.mmH) [min] | t1/2 (hCD28.mmH) [min] | binding result (human CD22 on cells [3]) | t1/2 [4] [min] | Kd [5] [nM] | t1/2 [5] [min] | Binder
72.9 | 341 | no binding (tested: 10^-7 M) | 13 | 100 | 8.75 | 7.8 | – | – | – | – | – | REGN5837 (bispecific antibody, V domains shown, also called anti-CD22 x anti-CD28 bispecific antibody; CD22xCD28 mAb) VH 1: QVQLQESGPGLVKPSETLSLTCTVSGGSISSYYWSWIRQPPGKGLEWIGYIYYSGITHYNPSLKSRVTISVDTSKIQFSLKLSSVTAADTAVYYCARWGVRRDYYYYGMDVWGQGTTVTVSS VH 2: EVQLVQSGAEVKKPGESLKISCKGSGYNFATYWIAWVRQMPGKGLELMGIIYPGDSETTYNPSFQGQVTISADKSISNAYLQWSSLKASDTAMYYCARVGGYCSGTSCHNWFDPWGLGTLVTVSS VL: not shown
88.4 | – | no binding (tested: 10^-7 M) | – | – | – | – | 2.4 | no binding (tested: 10^-7 M) | – | – | – | REGN5705 (antibody, V domains shown, also called CD28 mAb; parental CD28 antibody) VH: QVQLQESGPGLVKPSETLSLTCTVSGGSISSYYWSWIRQPPGKGLEWIGYIYYSGITHYNPSLKSRVTISVDTSKIQFSLKLSSVTAADTAVYYCARWGVRRDYYYYGMDVWGQGTTVTVSS VL: not shown
